In paper PMC9169680 (Science (New York, N.Y.), 2022):

Tests used:
[1] = target: Tetrahymena thermophila complex III protomer (Tt-CIII) (Tetrahymena thermophila (endogenous)); assay: cryo-EM structure
[2] = target: Tt-CI (Tetrahymena thermophila complex I, in Tt-SC I+III2) (Tetrahymena thermophila, UniProt Q23KE4); assay: cryo-EM structure; type: binding; details: 2.6 Å nominal resolution; native bound cofactor of the peripheral arm
Sequence of Tt-CI (Tetrahymena thermophila complex I, in Tt-SC I+III2) (Q23KE4 32-474): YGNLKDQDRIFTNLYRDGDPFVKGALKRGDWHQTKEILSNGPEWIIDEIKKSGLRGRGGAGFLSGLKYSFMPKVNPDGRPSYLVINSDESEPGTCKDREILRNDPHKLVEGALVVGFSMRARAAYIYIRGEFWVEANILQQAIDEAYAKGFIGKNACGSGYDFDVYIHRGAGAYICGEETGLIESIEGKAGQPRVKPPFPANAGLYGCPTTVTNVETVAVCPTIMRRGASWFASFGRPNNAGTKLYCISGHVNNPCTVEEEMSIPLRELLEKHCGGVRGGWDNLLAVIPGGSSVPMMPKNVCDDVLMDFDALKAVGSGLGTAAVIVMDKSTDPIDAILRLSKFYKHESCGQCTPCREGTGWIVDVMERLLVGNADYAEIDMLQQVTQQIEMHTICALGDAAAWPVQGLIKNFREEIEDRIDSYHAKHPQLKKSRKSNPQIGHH
Sequence of Tt-CI (Tetrahymena thermophila complex I, in Tt-SC I+III2) (Q951B1 1-442 partner): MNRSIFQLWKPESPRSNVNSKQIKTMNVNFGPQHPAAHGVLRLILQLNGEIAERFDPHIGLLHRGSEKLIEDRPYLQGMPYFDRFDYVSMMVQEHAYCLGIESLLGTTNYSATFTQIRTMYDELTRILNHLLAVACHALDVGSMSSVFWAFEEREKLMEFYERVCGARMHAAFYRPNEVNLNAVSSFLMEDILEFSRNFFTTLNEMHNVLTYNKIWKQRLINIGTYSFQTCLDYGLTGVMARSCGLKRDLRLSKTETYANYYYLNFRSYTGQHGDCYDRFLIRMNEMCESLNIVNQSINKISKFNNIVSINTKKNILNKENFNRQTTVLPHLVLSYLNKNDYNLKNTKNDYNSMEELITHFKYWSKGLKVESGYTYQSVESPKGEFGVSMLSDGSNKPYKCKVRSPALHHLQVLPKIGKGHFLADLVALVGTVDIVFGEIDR
Sequence of Tt-CI (Tetrahymena thermophila complex I, in Tt-SC I+III2) (Q951B4 1-162 partner): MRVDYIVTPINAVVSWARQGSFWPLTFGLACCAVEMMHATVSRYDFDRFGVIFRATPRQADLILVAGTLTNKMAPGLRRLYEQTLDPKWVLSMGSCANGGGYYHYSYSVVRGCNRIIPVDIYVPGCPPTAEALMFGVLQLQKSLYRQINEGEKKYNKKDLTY
Sequence of Tt-CI (Tetrahymena thermophila complex I, in Tt-SC I+III2) (Q950Z7 1-121 partner): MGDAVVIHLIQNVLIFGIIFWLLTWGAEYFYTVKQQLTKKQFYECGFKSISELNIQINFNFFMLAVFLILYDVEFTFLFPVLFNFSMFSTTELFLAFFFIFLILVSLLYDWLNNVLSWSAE

Molecule	stoichiometry N [1]	cryo-EM structure [2]
Tetrahymena thermophila complex III protomer (Tt-CIII)	2	–
Cc1cc2nc3c(=O)[nH]c(=O)nc-3n(C[C@H](O)[C@H](O)[C@H](O)COP(=O)(O)O)c2cc1C [flavin mononucleotide]	–	relative locations of the flavin mononucleotide (FMN) co-factor and eight ironsulfur clusters
